Reference: PMC4460866, “A folded and immunogenic IgE-hyporeactive variant of the major allergen Phl p 1 produced in Escherichia coli” (BMC Biotechnology, 2015)
Residue numbers refer to the chain shown, from its start. Names and notes keep the numbering of the source.

B1: C-terminal domain of Phl p 1.0102 (wild-type), GST tag removed (domain or fragment)
chain: KVTFHVEKGSNPNYLALLVKYVNGDGDVVAVDIKEKGKDKWIELKESWGAIWRIDTPDKLTGPFTVRYTTEGGTKTEAEDVIPEGWKADTSYESK
B2: IgE-hyporeactive (K8A, N11A, D55A) mutant of the C-terminal domain of Phl p 1.0102, GST tag removed (domain or fragment)
chain: B1 chain with K8A, N11A, D55A

Molecular target: the molecule itself
Assay: SEC; gel filtration of the purified tag-free proteins; elution volumes corresponding to approximately 20 kDa; data not shown

Protein	stoichiometry N
B1	2
B2	2
